We go through one molecule from PMC3897223 (Biochemistry, 2013).

For the assay, the target named is T1, AtsB, anaerobic sulfatase maturating enzyme from Klebsiella pneumoniae, wild type, reconstituted (Klebsiella pneumoniae, UniProt Q9X758 1-395).
T1 sequence (looked up): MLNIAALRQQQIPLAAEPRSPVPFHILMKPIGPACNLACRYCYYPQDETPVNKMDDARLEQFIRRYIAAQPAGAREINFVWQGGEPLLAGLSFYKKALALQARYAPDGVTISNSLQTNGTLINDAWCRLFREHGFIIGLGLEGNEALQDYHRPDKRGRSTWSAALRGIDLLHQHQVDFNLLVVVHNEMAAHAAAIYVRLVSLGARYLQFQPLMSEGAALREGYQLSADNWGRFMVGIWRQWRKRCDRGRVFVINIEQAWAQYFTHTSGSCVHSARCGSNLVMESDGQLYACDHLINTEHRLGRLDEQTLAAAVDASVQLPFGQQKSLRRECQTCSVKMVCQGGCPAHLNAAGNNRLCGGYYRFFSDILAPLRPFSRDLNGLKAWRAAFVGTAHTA
Nature of the assay: SEC. For orientation: Size exclusion chromatography separates by hydrodynamic size, large species first.

Where no end group is shown, it is not given here.

B1: Kp18Ser peptide substrate (peptide)
peptide: Ac-YYTSPMSAPARSMLLTGN
As for B1, the binding result was “binds”.
